Reference: the supplement of paper PMC9170038

Tested on: MS2 coat protein
Assay: apparent KD of MS2 coat protein; designed switch direction (-1 OFF switch, 1 ON switch): -1; higher = weaker reporter binding
Outline: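 Designed RNA switches with common flanks were made on Illumina chips by stalled E. coli RNA polymerase. Titration with SNAP-549-labelled MS2 coat protein doubled from 0.7 or 1.5 nM up to 3 µM. Apparent KD is each design's median over clusters after curve-fitting normalised fluorescence.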

[1] = Eterna round: R95, input ligand: FMN 200 uM
[2] = Eterna round: R95, input ligand: microRNA oligo, concentration not stated
[3] = Eterna round: R95, input ligand: none
[4] = input ligand: microRNA oligo, concentration not stated

Row | Sequence | apparent KD of MS2 coat protein [1] | apparent KD of MS2 coat protein [2] | apparent KD of MS2 coat protein [3] | apparent KD of MS2 coat protein (input ligand: FMN 200 uM) | apparent KD of MS2 coat protein [4] | apparent KD of MS2 coat protein (input ligand: none)
1 | AAGUAUAGAGGAUAUAGUGAGUACUACAUGAGGAUCACCCAUGUUCUUCGAAACGUAUUUCUAGAAGGCUGAUAAA [EX-5 Malc#22] (puzzle: Exclusion 5) | 35.3 nM | 28.2 nM | 29.2 nM | – | – | –
2 | UUCUUACGAGGAUAUCGAUGGUGGAACAUGAGGAUCACCCAUGUAUGAGAUAUUGUAUUUCGAGAAGGCGUUCAGU [JR_E5_Sub058] (puzzle: Exclusion 5) | – | 51.6 nM | – | – | – | –
3 | GGGUAGUGAGGAUAUCGUUGUUAGGAGGAGUAGGUAGGAGGCGAGAAGGCACAUGAGGAUCACCCAUGUAUGAA [JR_Exclu4_Sub066] (Eterna round: R96, puzzle: Exclusion 4) | – | – | – | 34.9 nM | 26.2 nM | 32 nM
4 | AACCGUCGUCAGGAUAUUUGCCAGGAUUCUAGCGAAGAAGGGACGACAUGAGGAUCACCCAUGUUGGCCACUCG [EX6 B.26] (Eterna round: R97, puzzle: Exclusion 6) | – | – | – | 188 nM | – | 36.9 nM
5 | CAGUACUGAGGAUAUACAUGAGGAUCACCCAUGUUUUCCAGCUAGGAAACUAGCAAAUGUAGAAGGCAGUACUG [Salish 065 m5] (Eterna round: R97, puzzle: Exclusion 3) | – | – | – | 253 nM | – | 25.4 nM
6 | ACGUGAUAUCUGUCGGUGGACAUGAGGAUCACCCAUGUAAGCUUCUUGCUCGUCUUAUAACCCGGUGACAGACCUUC [Zalaso] (puzzle: Sensor v3, turn-off variant 1) | 42.8 nM | 449 nM | 47 nM | – | – | –
7 | UGUCUUGCAGGAUAUCAUGUGAUAUACAUGAGGAUCACCCAUGUUAGCCUCAUGAGCGUCUGAGAAGGGUAAGACG [Eternabot (L2) Solution 22] (Eterna round: R97, puzzle: Exclusion 5) | – | – | – | 131 nM | – | 40.1 nM
8 | AAGUAGACAGUGAGGAUAUAGGUGGAAUGACCCAUUUAGAAGGUACAUGAGGAUCACCCAUGUGGGUAAUGUCG [Brourd's EX4 #27] (Eterna round: R97, puzzle: Brourd's mod of Exclusion 4) | – | – | – | 146 nM | – | 149 nM
9 | UGAGGACAUGAGGAUCACCCAUGUAAGGAUAUGCGGAGAGUUUGGAGAGGUUGAGGAGGCAGAAGGUACGGGAU [JR_Exclu1_Sub046] (puzzle: Exclusion 1) | – | 102 nM | – | – | – | –
10 | UAUAUAUAGUAAGGAUAUGUAUAUGUUUUAUAAACAGAAGGUACUGACAUGAGGAUCACCCAUGUUUUAGUGUGGGCAUGUAGA [JMF's solution 54] (Eterna round: R96, puzzle: Exclusion NG 1) | – | – | – | – | 44.5 nM | –
11 | AGGUAGUCAGGAUAUUAAGAGUAGCGGGAUAACGCUACGAGUGAGAAGGGACAUGAGGAUCACCCAUGUUUUUU [JR_Ex4_Sub072] (Eterna round: R97, puzzle: Exclusion 4) | – | – | – | 22 nM | – | 22.5 nM
12 | GACCCUAGGGUCAGAUGCACAAGCUUUUUGCUCGUUUUAACAUGAGGAUCACCCAUGUCUAGUGGAUCUGAUCGGGC [Erorente] (puzzle: Sensor v3, turn-off variant 2) | 20.6 nM | 88.8 nM | 18.2 nM | – | – | –
13 | AAGAAACAUGAGGAUCACCCAUGUGAGGAUAUGUAAAAUAAAAGAAAAGAAAGAAGAAACAGAAGGCACAAAGG [Mat - Mod of Hog D13] (puzzle: Exclusion 1) | 47.3 nM | 35.4 nM | 47.5 nM | – | – | –
14 | AGGUAACAUGAGGAUCACCCAUGUCAGGAUAUCAGUAAGAUGAGGAUAGAAUAGAGUAUGAGAAGGGACUAUAU [Excluse me! 22 - Jieux - Exclusion 1] (puzzle: Exclusion 1) | 34 nM | 38.5 nM | 47.6 nM | – | – | –
15 | GGACCGCGGCAAGGAUAUCUUUGUCAACAUAAAACAUGAGGAUCACCCAUGUGCAUCUUCGUGUGAGAGAAGGUGCGGCAGUCC [Isisgeri] (Eterna round: R96, puzzle: Exclusion NG 2) | – | – | – | 222 nM | 113 nM | 127 nM
16 | ACAUGAGGAUCACCCAUGUCCGGUUGGUUUUCUCCGGCUGUUGAGGAUAUAGUCCGGUAUCCGCGCUAGAAGGUGAGGGUUGGC [Aenatbe mod 12] (Eterna round: R96, puzzle: Exclusion NG 3) | – | – | – | 212 nM | 125 nM | 165 nM
17 | CGUGCGUAUGUGAGGAUAUGCUGGUCCUUGGCUCGGCAGAAGGCACAUGAGGAUCACCCAUGUGGUGUCGUACC [salish99_Bmod_ex4_061] (puzzle: Brourd's mod of Exclusion 4) | – | 18.9 nM | – | – | – | –
18 | AAACAACGGACAGGAUAUCCGAAAAUAAAGCUAGGAGAAGGGUCGAAAACAUGAGGAUCACCCAUGUGCGUGGCGGGUUCUUAG [Zaerqu] (Eterna round: R96, puzzle: Exclusion NG 1) | – | – | – | 25.6 nM | 13.4 nM | 21.2 nM
19 | AAAGCCAAGCGAGGAUAUGCGAUAGUUGAUCUUCGUGAGGACAUGAGGAUCACCCAUGUGCUGCAGCAGAAGGCGCAGGUAAAG [Anramaqu] (Eterna round: R96, puzzle: Exclusion NG 2) | – | – | – | 754 nM | 140 nM | 318 nM
20 | CACAUUACAAAGGAUAUCUGACCAUGCCCUGGCAGAGAAGGUUGGACAUGAGGAUCACCCAUGUGUAUCCAAGU [Eternabot (Original) Solution 6] (Eterna round: R97, puzzle: Exclusion 6) | – | – | – | 37.7 nM | – | 26.8 nM
21 | UUUAAUCAUGUAGGAUAUGCGUGGCGAAGCUAUGCAGAAGGACAUGAGGAUCACCCAUGUUCUAGCGUCUGCGUACAGAUGCGG [13th something] (Eterna round: R96, puzzle: Exclusion NG 1) | – | – | – | 229 nM | 35.3 nM | 39.9 nM
22 | UGCAGACGAGGAUAUAAACGAUAUAACAUGAGGAUCACCCAUGUACGAUCGAAUGAUCGUUUAGAAGGCGUCUGCU [E5/10-A3] (Eterna round: R97, puzzle: Exclusion 5) | – | – | – | 16.1 nM | – | 16.2 nM
23 | GGAUCGAGAGUGAGGAUAUGCUGGUCCUUGGAUCAGCAGAAGGCACAUGAGGAUCACCCAUGUGAUUCCGAUCC [Mat - Exclusion 4 - Eli Mod - D39] (Eterna round: R97, puzzle: Brourd's mod of Exclusion 4) | – | – | – | 399 nM | – | 40.6 nM
24 | GGAUCGAGUGUGAGGAUAUGCUGGUCCUUGGAUCAGCAGAAGGCACAUGAGGAUCACCCAUGUGAAAACGGUCC [Mat - Exclusion 4 - JL Mod - D70] (puzzle: Brourd's mod of Exclusion 4) | – | 22.7 nM | – | – | – | –
25 | AAUAAUUUUUUUUUUUUACAAGCUUUUUGCUCGUCUUAUACAUGAGGAUCACCCAUGUGGGUGAAAGAUAGAUUGUC [JMF's solution 1] (puzzle: Sensor v3, turn-off variant 2) | 30.6 nM | 18.2 nM | 44.8 nM | – | – | –
